Source: publication PMC8263776, “Calmodulin-dependent KCNE4 dimerization controls membrane targeting” (Scientific Reports, 2021)

B1: Kv1.3-CFP (natural protein, rat, UniProt P15384 1-525, looked up)
chain: MTVVPGDHLLEPEAAGGGGGDPPQGGCVSGGGCDRYEPLPPALPAAGEQDCCGERVVINISGLRFETQLKTLCQFPETLLGDPKRRMRYFDPLRNEYFFDRNRPSFDAILYYYQSGGRIRRPVNVPIDIFSEEIRFYQLGEEAMEKFREDEGFLREEERPLPRRDFQRQVWLLFEYPESSGPARGIAIVSVLVILISIVIFCLETLPEFRDEKDYPASPSQDVFEAANNSTSGASSGASSFSDPFFVVETLCIIWFSFELLVRFFACPSKATFSRNIMNLIDIVAIIPYFITLGTELAERQGNGQQAMSLAILRVIRLVRVFRIFKLSRHSKGLQILGQTLKASMRELGLLIFFLFIGVILFSSAVYFAEADDPSSGFNSIPDAFWWAVVTMTTVGYGDMHPVTIGGKIVGSLCAIAGVLTIALPVPVIVSNFNYFYHRETEGEEQAQYMHVGSCQHLSSSAEELRKARSNSTLSKSEYMVIEEGGMNHSAFPQTPFKTGNSTATCTTNNNPNSCVNIKKIFTDV
notes: Kv1.3, rat (rKv1.3), subcloned from pRcCMV into pECFP-C1; pECFP-C1 is surmised to put CFP at the N-terminus of the insert; source: HEK-293, transfected; in lysate (cross-linking) or in fixed cells (FRET)
B2: Kv1.3-loopBAD-GFP (natural protein, rat, UniProt P15384 1-525, looked up)
chain: B1 chain
modifications: biotin on the loopBAD tag (BirA co-expressed)
notes: Kv1.3, rat (rKv1.3); GFP-Kv1.3 with a loopBAD tag introduced at an NruI restriction site; source: HEK-293, electroporated with BirA, on the cell surface
B3: KCNE4-loopBAD-GFP (natural protein, mouse, UniProt Q9WTW3 1-170, looked up)
chain: MLRMEPLNSTYPSAAASSSPLESHVPSNSSGNGNEYFYILVVMSFYGVFLIGIMLGYMKSKRREKKSSLLLLYKDEERLWGEAMKPLPMMSGLRSGQVPMMLNMLQESVAPALSCTLCSMEGDSVSSESSSPDVHLPIQEEGADDELEETSETPLNDSSEGSSENIHQNS
modifications: biotin on the loopBAD tag (BirA co-expressed)
notes: KCNE4, mouse (mKCNE4), UniProtKB Q9WTW3; KCNE4-GFP with a loopBAD tag introduced at an NruI restriction site; source: HEK-293, electroporated with BirA, on the cell surface

Assays:
[1] = biological target: the molecule itself; assay: cross-linking; HEK-293 lysates (50 mM boric acid, 100 mM K acetate, 2 mM MgCl2, 1 mM EGTA, 1% Triton X-100, pH 8.5) with or without 5 mM DMP for 1 h; 7% SDS-PAGE, immunoblot against CFP
[2] = biological target: the molecule itself; assay: counting of GFP bleaching steps of single spots (TIRF microscopy); loopBAD-GFP proteins biotinylated by BirA on HEK-293 cells, immobilised through neutravidin on biotinylated glass; bleaching steps counted per spot

Protein	stoichiometry N [1]	stoichiometry N [2]
B1	4	
B2		4
B3		2
